Laboratory results from the RNAGym collection of RNA variant scans (doi:10.1073/pnas.2313332121).

B1: TPR t1 (parent)
chain: GACCAAUCUGCCCUCAGAGCUCGAGAACAUCUUCGGAUGCAGAGGAGGCAGGCUUCGGUGGCGCGAUAGCGCCAACGUCCUCAACCUCCAAUGCAUCCCACCACAUGAUGAUGCCUGAAGAGCCUUGGUUUUUUG

Variants of: B1
Assay: polymerase ribozyme fitness, log enrichment relative to wild type (log ratio); higher = more active; in vitro selection for triplet polymerase activity
Procedure, shortened: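 The heterodimeric triplet polymerase ribozyme's subunits were each mutagenized into PCR-built libraries and transcribed. Every library was selected once, in triplicate, by annealing with a biotinylated primer, the partner subunit and triplets, incubating frozen at −7 °C, gel-excising extended constructs, capturing on streptavidin beads and running RT-PCR. Input and output libraries were Illumina-sequenced, with genotypes kept only at ≥10 input reads and ≥1 read per output. Fitness, from inverse-variance-weighted replicate averages, is the base-2 logarithm of genotype enrichment over wild-type enrichment.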

First: A18U G35U U54G C88A U112A
Second: C12U C88A A95U C104A
The “polymerase ribozyme fitness (log ratio)” value of the first is lower: -7.02 for the first, -3.44 for the second.

First: G48A C53G U55C G69A
Second: C56A C64A G93A C104A U109G A111C
The “polymerase ribozyme fitness (log ratio)” value of the first is higher: -2.78 for the first, -5.87 for the second.

First: G10U C20A
Second: A18U A95G
The “polymerase ribozyme fitness (log ratio)” value of the first is lower: -3.25 for the first, -2.21 for the second.

First: C40G A43U C73A U126C
Second: C80A G93A
The “polymerase ribozyme fitness (log ratio)” value of the first is higher: -3.57 for the first, -3.95 for the second.

Compared with C34A A37U C82G, A5G C79U is higher in “polymerase ribozyme fitness (log ratio)” value: -4.35 for the first, 0.091 for the second.

Going from A50C C53G C86U C88U G107U A121U to C8U A37U C70A U112C, the “polymerase ribozyme fitness (log ratio)” value rises from -5.3 to 0.338.

First: A111G U116G C124A U131G
Second: U14C C56G A119U
The “polymerase ribozyme fitness (log ratio)” value of the first is higher: -1.23 for the first, -3.8 for the second.

First: G42U G113C
Second: A41G C73G G93C
The “polymerase ribozyme fitness (log ratio)” value of the first is lower: -3.23 for the first, -2.94 for the second.

Going from G47A G60A C124G to C13G C64U C73A G120A A121U, the “polymerase ribozyme fitness (log ratio)” value falls from 0.279 to -0.317.

First: C13U A26G G60A G93C
Second: C13A G17A C62A G120A
The “polymerase ribozyme fitness (log ratio)” value of the first is higher: -4.31 for the first, -5.55 for the second.

Compared with G48U C86A, U9G A16U G19U A37G A43U G69U C101A is lower in “polymerase ribozyme fitness (log ratio)” value: -0.67 for the first, -4.92 for the second.

Going from C12A C123U G128C to A37U U132C, the “polymerase ribozyme fitness (log ratio)” value falls from 0.474 to -1.09.

First: G51U C64G U112G
Second: C82G G117U C123G C124U
The “polymerase ribozyme fitness (log ratio)” value of the first is lower: -6.95 for the first, -1.39 for the second.

First: G71A
Second: G36A C88U
The “polymerase ribozyme fitness (log ratio)” value of the first is higher: -0.673 for the first, -0.885 for the second.

First: A27U C104A
Second: G44C U81C U106A
The “polymerase ribozyme fitness (log ratio)” value of the first is lower: -4.18 for the first, -0.434 for the second.

Compared with C53U G93C, C13G A121U is higher in “polymerase ribozyme fitness (log ratio)” value: -1.07 for the first, 0.0945 for the second.

Compared with U32A C56G G60C C62A A121C, C56U A100C U112C is higher in “polymerase ribozyme fitness (log ratio)” value: -6.89 for the first, 0.715 for the second.

Going from A37U A50C C70A C124G to C40U U55C, the “polymerase ribozyme fitness (log ratio)” value rises from -1.17 to -0.711.

Going from C3A A41C C80U C123A to C97U A103U, the “polymerase ribozyme fitness (log ratio)” value falls from -1.77 to -5.3.

Going from C11U C49G A74U C123G to A16U G61C U130G, the “polymerase ribozyme fitness (log ratio)” value falls from 0.499 to -2.75.

Going from C11G U21G C53A U55C to C8G C11G G36U, the “polymerase ribozyme fitness (log ratio)” value rises from -0.805 to 0.581.

Going from A43U U81A C85G to U109C A121G C124A G127C, the “polymerase ribozyme fitness (log ratio)” value falls from -3.37 to -3.66.

Going from G93U C98U to C8G C13U C79A G117A U126A, the “polymerase ribozyme fitness (log ratio)” value rises from -2.33 to -0.523.

Going from G60A U129A to G10A G61A A111G, the “polymerase ribozyme fitness (log ratio)” value rises from -0.603 to 0.12.

Compared with A37U C56U, G57U C72A C88U is lower in “polymerase ribozyme fitness (log ratio)” value: -0.686 for the first, -1.77 for the second.

U54G G113U and U92A C94U are within 0.2 log units of each other in “polymerase ribozyme fitness (log ratio)” value: -3.26 for the first, -3.3 for the second.

First: C13G G127C
Second: G60A U87G C101U
The “polymerase ribozyme fitness (log ratio)” value of the first is lower: -1.12 for the first, 0.254 for the second.

First: A5U U21C C97U
Second: C28G G57U
The “polymerase ribozyme fitness (log ratio)” value of the first is higher: -1.38 for the first, -2.76 for the second.

First: G17A C72U A90U A121G
Second: C4U C56A C114A C124U
The “polymerase ribozyme fitness (log ratio)” value of the first is higher: 0.0637 for the first, -3.31 for the second.

Compared with C3U C12U G63A A66C U133A, C8A G36A G60U C82A G117C U131A G135U is lower in “polymerase ribozyme fitness (log ratio)” value: -2.5 for the first, -5.4 for the second.

Compared with G17A U59C G69U G120U, C73U U87C C88U A111G C123A is higher in “polymerase ribozyme fitness (log ratio)” value: -2.26 for the first, -2.06 for the second.

First: A6G U14G C28U G110C C115U U125A
Second: C73A C101G
The “polymerase ribozyme fitness (log ratio)” value of the first is lower: -6.22 for the first, -1.26 for the second.

Going from C20A C86G C89U A119U to C72U U78C A83U A90G A121G, the “polymerase ribozyme fitness (log ratio)” value rises from -6.11 to 1.89.

Going from G57C C89A A95G A111U A121U to C11U C13U A83C C97A, the “polymerase ribozyme fitness (log ratio)” value falls from -2.97 to -4.34.

First: C73A U92A C104U
Second: U33G C104A A121C G135A
The “polymerase ribozyme fitness (log ratio)” value of the first is higher: -2.28 for the first, -5.07 for the second.

Going from C8U A100C to U14A A16U A50U C72A U81C, the “polymerase ribozyme fitness (log ratio)” value falls from -0.899 to -5.83.

First: C12G G47U C64U
Second: C64G C88U
The “polymerase ribozyme fitness (log ratio)” value of the first is higher: -1.58 for the first, -5.96 for the second.

First: C22U G93C C114A
Second: C8U C28A C72A A83C G110A
The “polymerase ribozyme fitness (log ratio)” value of the first is lower: -6.86 for the first, 1.02 for the second.

Compared with C56A C62U, A46U U81C C101G is lower in “polymerase ribozyme fitness (log ratio)” value: -0.164 for the first, -4.31 for the second.

First: C15U G39C C94U C115U C123A G135U
Second: G36U G71U U87A C104A G113U C115U U130A
The “polymerase ribozyme fitness (log ratio)” value of the first is higher: -5.48 for the first, -7.12 for the second.

First: G63U U112C
Second: U96G C124A
The “polymerase ribozyme fitness (log ratio)” value of the first is lower: -0.421 for the first, 1.39 for the second.

In the case of A18U C56U C123G U129A, the “polymerase ribozyme fitness (log ratio)” value is reported as -1.91.
